# Laboratory results from patent US20250382386A1 (KINTOR PHARMACEUTICAL GUANGDONG, published 2025).
# Where two headings read alike, the source gives them in different places.
# Legend:
# [1] = biological target: T1, human ALK-1 on cells (CHO-K1-hALK-1 cells; HUVEC; A172) (human, UniProt P37023 22-503); assay: cell-based or functional assay
# [2] = biological target: T1, human ALK-1 on cells (CHO-K1-hALK-1 …); assay: flow cytometry on CHO-K1-hALK-1 cells ('Binding affinity to CHO-ALK1'), MFI; method as for FIG. 3
# [3] = biological target: T1, human ALK-1 on cells (CHO-K1-hALK-1 …); assay: cell-based or functional assay; remark: listed apart in the source
# [4] = biological target: T1, human ALK-1 on cells (CHO-K1-hALK-1 …); assay: cell-based or functional assay; remark: listed apart in the source
# [5] = biological target: T1, human ALK-1 on cells (CHO-K1-hALK-1 …); assay: cell-based or functional assay; remark: listed apart in the source
# [6] = biological target: T1, human ALK-1 on cells (CHO-K1-hALK-1 …); assay: flow cytometry on CHO-K1-ALK-1 cells, MFI; detection with human PD-1-PE and PE anti-human IgG Fc antibody 'respectively'
# [7] = biological target: T1, human ALK-1 on cells (CHO-K1-hALK-1 …); assay: flow cytometry on CHO-K1-hALK-1 cells, MFI; VEGF 165-biotin and APC-anti-human IgG mAb added after the antibody
# [8] = biological target: T1, human ALK-1 on cells (CHO-K1-hALK-1 …); assay: cell-based or functional assay; remark: listed apart in the source
# [9] = biological target: T1, human ALK-1 on cells (CHO-K1-hALK-1 …); assay: flow cytometry on CHO-K1-hALK-1 cells, MFI
Binder,IC50 of blocking BMP9-induced Smad1 phosphorylation in HUVEC cells (ELISA kit) [1],also measured
"anti-ALK-1 antibody #1 (antibody, human IgG1, kappa, L234A L235A, V domains shown) VH: QVQLQESGPGLVKPSQTLSLTCTVSGGSISSGEYYWNWIRQHPGKGLEWIGYIYYSGSTYYNPSLKSRVTISVDTSKNQFSLKLSSVTAADTAVYYCARESVAGFDYWGQGTLVTVSS VL: EIVLTQSPGTLSLSPGERATLSCRASQSVSSSYLAWYQQKPGQAPRLLIYGTSSRATGIPDRFSGSGSGTDFTLTISRLEPEDFAVYYCQGYGSFPITFGQGTRLEIKR",5.8 nM,
"anti-ALK-1 antibody #3 (antibody, human IgG1, kappa, L234A L235A, V domains shown) VH: QVQLQESGPGLVKPSQTLSLTCTVSGGSISSGEYYWNWIRQHPGKGLEWIGYIYYSGSTYYNPSLKSRVTISVDTSKNQFSLKLSSVTAADTAVYYCARESVAGFDYWGQGTLVTVSS VL: EIVLTQSPGTLSLSPGERATLSCRASQSVSSSYLAWYQQKPGQAPRLLIYGTSSRATGIPDRFSGSGSGTDFTLTISRLEPEDFAVYYCQLYGSFPITFGQGTRLEIKR",5.3 nM,
"anti-ALK-1 antibody #14 (antibody, human IgG1, kappa, L234A L235A, V domains shown) VH: QVQLQESGPGLVKPSQTLSLTCTVSGGSISSGEYYWNWIRQHPGKGLEWIGYIYYSGSTYYNPSLKSRVTISVDTSKNQFSLKLSSVTAADTAVYYCARESVAGFDYWGQGTLVTVSS VL: EIVLTQSPGTLSLSPGERATLSCRASQSVSSSYLAWYQQKPGQAPRLLIYGTSSRATGIPDRFSGSGSGTDFTLTISRLEPEDFAVYYCQMYGSWPITFGQGTRLEIKR",11.1 nM,
"anti-ALK-1 antibody #12 (antibody, human IgG1, kappa, L234A L235A, V domains shown) VH: QVQLQESGPGLVKPSQTLSLTCTVSGGSISSGEYYWNWIRQHPGKGLEWIGYIYYSGSTYYNPSLKSRVTISVDTSKNQFSLKLSSVTAADTAVYYCARESVAGFDYWGQGTLVTVSS VL: EIVLTQSPGTLSLSPGERATLSCRASQSVSSSYLAWYQQKPGQAPRLLIYGTSSRATGIPDRFSGSGSGTDFTLTISRLEPEDFAVYYCQIYGSIPITFGQGTRLEIKR",11.2 nM,
"anti-ALK-1 antibody #9 (antibody, human IgG1, kappa, L234A L235A, V domains shown) VH: QVQLQESGPGLVKPSQTLSLTCTVSGGSISSGEYYWNWIRQHPGKGLEWIGYIYYSGSTYYNPSLKSRVTISVDTSKNQFSLKLSSVTAADTAVYYCARESVAGFDYWGQGTLVTVSS VL: EIVLTQSPGTLSLSPGERATLSCRASQSVSSSYLAWYQQKPGQAPRLLIYGTSSRATGIPDRFSGSGSGTDFTLTISRLEPEDFAVYYCQIYGSWPITFGQGTRLEIKR",11.6 nM,
"Bevacizumab (antibody, V domains shown, Bought control antibody (Biointron, B7424); also called Avastin; VEGF-A monoclonal antibody (Bevacizumab)) VH: EVQLVESGGGLVQPGGSLRLSCAASGYTFTNYGMNWVRQAPGKGLEWVGWINTYTGEPTYAADFKRRFTFSLDTSKSTAYLQMNSLRAEDTAVYYCAKYPHYYGSSHWYFDVWGQGTLVTVSS VL: DIQMTQSPSSLSASVGDRVTITCSASQDISNYLNWYQQKPGKAPKVLIYFTSSLHSGVPSRFSGSGSGTDFTLTISSLQPEDFATYYCQQYSTVPWTFGQGTKVEIK",,binding result [9]: no binding (tested: about 50 nM)

# Second part, led by results:
IC50 of blocking BMP9-induced Smad1 phosphorylation in HUVEC cells (ELISA kit) [1],Binder,also measured
9.1 nM,"anti-ALK-1 antibody #25 (antibody, human IgG1, kappa, L234A L235A, V domains shown) VH: QVQLQESGPGLVKPSQTLSLTCTVSGGSISSGEYYWNWIRQHPGKGLEWIGYIYYSGSTYYNPSLKSRVTISVDTSKNQFSLKLSSVTAADTAVYYCARESVAGFDYWGQGTLVTVSS VL: EIVLTQSPGTLSLSPGERATLSCRASQSVSSSYLAWYQQKPGQAPRLLIYGTSSRATGIPDRFSGSGSGTDFTLTISRLEPEDFAVYYCQVYGSWPITFGQGTRLEIKR",
6.3 nM,"anti-ALK-1 antibody #27 (antibody, human IgG1, kappa, L234A L235A, V domains shown) VH: QVQLQESGPGLVKPSQTLSLTCTVSGGSISSGEYYWNWIRQHPGKGLEWIGYIYYSGSTYYNPSLKSRVTISVDTSKNQFSLKLSSVTAADTAVYYCARESVAGFDYWGQGTLVTVSS VL: EIVLTQSPGTLSLSPGERATLSCRASQSVSSSYLAWYQQKPGQAPRLLIYGTSSRATGIPDRFSGSGSGTDFTLTISRLEPEDFAVYYCQGYGSWPITFGQGTRLEIKR",
12.4 nM,"anti-ALK-1 antibody #26 (antibody, human IgG1, kappa, L234A L235A, V domains shown) VH: QVQLQESGPGLVKPSQTLSLTCTVSGGSISSGEYYWNWIRQHPGKGLEWIGYIYYSGSTYYNPSLKSRVTISVDTSKNQFSLKLSSVTAADTAVYYCARESVAGFDYWGQGTLVTVSS VL: EIVLTQSPGTLSLSPGERATLSCRASQSVSSSYLAWYQQKPGQAPRLLIYGTSSRATGIPDRFSGSGSGTDFTLTISRLEPEDFAVYYCQVYGSVPITFGQGTRLEIKR",
8.2 nM,"anti-ALK-1 antibody #18 (antibody, human IgG1, kappa, L234A L235A, V domains shown, the rest as BM; also called #18 mutant; ALK-1 mAb (#18 mutant)) VH: QVQLQESGPGLVKPSQTLSLTCTVSGGSISSGEYYWNWIRQHPGKGLEWIGYIYYSGSTYYNPSLKSRVTISVDTSKNQFSLKLSSVTAADTAVYYCARESVAGFDYWGQGTLVTVSS VL: EIVLTQSPGTLSLSPGERATLSCRASQSVSSSYLAWYQQKPGQAPRLLIYGTSSRATGIPDRFSGSGSGTDFTLTISRLEPEDFAVYYCQAYGSWPITFGQGTRLEIKR","EC50 [2]: 0.447 nM; IC50; blocking of BMP9-induced Smad1 phosphorylation, pSmad1 ELISA assay in A172 cell line (right panel), OD 450 [3]: 2.39 nM; IC50; blocking of BMP9-induced Smad1 phosphorylation, pSmad1 ELISA assay in HUVEC (left panel), OD 450 [3]: 26.3 nM; IC50; blocking of BMP9-induced Smad1 phosphorylation, pSmad1 ELISA assay in HUVEC, OD450 [4]: 26.3 nM; IC50; blocking of BMP9-induced Smad1 phosphorylation, pSmad1 ELISA assay in HUVEC, OD450 [5]: 20.9 nM; EC50 [6]: 1.85 nM; EC50 [7]: 1.85 nM; IC50; blocking of BMP9-induced Smad1 phosphorylation, pSmad1 ELISA assay in A172 cell line, OD 450 [8]: 2.39 nM"
5.2 nM,"anti-ALK-1 antibody #19 (antibody, human IgG1, kappa, L234A L235A, V domains shown) VH: QVQLQESGPGLVKPSQTLSLTCTVSGGSISSGEYYWNWIRQHPGKGLEWIGYIYYSGSTYYNPSLKSRVTISVDTSKNQFSLKLSSVTAADTAVYYCARESVAGFDYWGQGTLVTVSS VL: EIVLTQSPGTLSLSPGERATLSCRASQSVSSSYLAWYQQKPGQAPRLLIYGTSSRATGIPDRFSGSGSGTDFTLTISRLEPEDFAVYYCQFYGSWPITFGQGTRLEIKR",
6.9 nM,"anti-ALK-1 antibody #28 (antibody, human IgG1, kappa, L234A L235A, V domains shown) VH: QVQLQESGPGLVKPSQTLSLTCTVSGGSISSGEYYWNWIRQHPGKGLEWIGYIYYSGSTYYNPSLKSRVTISVDTSKNQFSLKLSSVTAADTAVYYCARESVAGFDYWGQGTLVTVSS VL: EIVLTQSPGTLSLSPGERATLSCRASQSVSSSYLAWYQQKPGQAPRLLIYGTSSRATGIPDRFSGSGSGTDFTLTISRLEPEDFAVYYCQIYGSVPITFGQGTRLEIKR",
